This experiment addresses NtFD1-Flag (Nicotiana tabacum). The experiment can be described thus: native gel or EMSA; extract of N. benthamiana leaves expressing NtFD1-Flag loaded directly onto a native PAGE gel, then western blotting; native protein marker GAPDH used for size. (In general: Mobility shift assays separate free from complexed probe on a gel.)

As usually defined, the stoichiometry N is a count of units in the complex or per binding partner. NtFD1-Flag (natural protein) showed a stoichiometry N of 4.
